Results from patent US20250295799A1, “ANTIBODY-DRUG CONJUGATES TARGETING GLYPICAN-3 AND METHODS OF USE” (Zymeworks BC Inc., priority 2022, published 2025).
Each block holds one binder with its values, some of them ahead of it.

Target: Insulin (Sigma-Aldrich, 19278) (Homo sapiens (Human)) (UniProt P01308)
Assay: NS-ELISA, plate coated with insulin, antibody at 100 nM

Insulin (Sigma-Aldrich, 19278) (Homo sapiens (Human)), sequence (P01308 25-54 limits assumed, chain 1 of 2): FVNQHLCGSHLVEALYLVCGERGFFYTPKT
Insulin (Sigma-Aldrich, 19278) (Homo sapiens (Human)), sequence (P01308 90-110 limits assumed, chain 2 of 2): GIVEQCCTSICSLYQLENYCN

- NS-ELISA binding score (ratio to buffer well): 0.83
B1: v37575 (codrituzumab) (antibody, human IgG1, kappa, V domains shown)
VH: QVQLVQSGAEVKKPGASVKVSCKASGYTFTDYEMHWVRQAPGQGLEWMGALDPKTGDTAYSQKFKGRVTLTADKSTSTAYMELSSLTSEDTAVYYCTRFYSYTYWGQGTLVTVSS
VL: DVVMTQSPLSLPVTPGEPASISCRSSQSLVHSNRNTYLHWYLQKPGQSPQLLIYKVSNRFSGVPDRFSGSGSGTDFTLKISRVEAEDVGVYYCSQNTHVPPTFGQGTKLEIKR

- NS-ELISA binding score (ratio to buffer well): 1.78
B2: v36180 (M3-H1L1) (antibody, human IgG1, kappa, V domains shown)
VH: EVQLVQSGAEVKKPGSSVKVSCKASGYTFTDYEMHWVRQAPGQGLEWIGAIDPETGDTAYNQKFKGRATLTADKSTSTAYMELSSLRSEDTAVYYCTRYFSFAYWGQGTLVTVSS
VL: DVQMTQSPSSVSASVGDRVTITCRSSQSLRHSNGNTYLQWYQQKPGKAPKLLIYKVSNRFSGVPSRFSGSGSGTDFTLTISSLQPEDFATYFCYQSKHVPYTFGQGTKVEIKR
